Laboratory results: PMC9482650, “Quantitative fragmentomics allow affinity mapping of interactomes” (Nature Communications, 2022)

T1: ARHGAP21, Q5T5U3
T1 sequence (Q5T5U3 45-169, limits assumed, looked up): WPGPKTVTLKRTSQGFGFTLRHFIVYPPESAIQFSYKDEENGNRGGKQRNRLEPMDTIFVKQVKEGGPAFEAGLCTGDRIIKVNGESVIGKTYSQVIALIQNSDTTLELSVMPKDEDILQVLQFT

T2: APBA2_2, Q99767
T2 sequence (Q99767 654-744, limits assumed, looked up): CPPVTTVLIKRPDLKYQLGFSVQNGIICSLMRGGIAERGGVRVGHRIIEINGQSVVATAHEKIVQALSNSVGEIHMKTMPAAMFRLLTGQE

T3: SNTB1, Q13884
T3 sequence (Q13884 107-205, limits assumed, looked up): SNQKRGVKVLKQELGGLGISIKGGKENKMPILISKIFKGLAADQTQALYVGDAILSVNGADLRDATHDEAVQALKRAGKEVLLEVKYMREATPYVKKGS

T4: PDZD2_2, O15018
T4 sequence (O15018 329-429, limits assumed, looked up): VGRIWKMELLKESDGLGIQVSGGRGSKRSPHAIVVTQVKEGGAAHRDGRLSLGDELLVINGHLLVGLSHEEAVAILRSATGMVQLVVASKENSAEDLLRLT

T5: SHANK1, Q9Y566
T5 sequence (Q9Y566 658-767, limits assumed, looked up): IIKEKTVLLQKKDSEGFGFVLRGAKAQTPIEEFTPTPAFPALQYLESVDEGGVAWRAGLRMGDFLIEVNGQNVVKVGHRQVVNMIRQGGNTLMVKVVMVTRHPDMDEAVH

T6: RADIL, Q96JH8
T6 sequence (Q96JH8 971-1071, limits assumed, looked up): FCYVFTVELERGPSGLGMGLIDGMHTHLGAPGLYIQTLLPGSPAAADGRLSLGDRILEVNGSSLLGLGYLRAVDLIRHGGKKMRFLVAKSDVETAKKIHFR


Columns and labels:
Assay in all cases: holdup assay
Parameters in all cases: key: below the threshold = too weak to quantify, mostly under pKd 3.1 to 4
Conditions in all cases: plain residues with an end cap or a label only (N-terminal biotin on a linker: ado-ado)
LNX1_3, Q8TBB1 = target: LNX1_3, Q8TBB1
HTRA2, O43464 = target: HTRA2, O43464
DLG1_2, Q12959 = target: DLG1_2, Q12959
FRMPD4, Q14CM0 = target: FRMPD4, Q14CM0
DLG4_3, P78352 = target: DLG4_3, P78352
ARHGAP21, Q5T5U3 = target: T1, ARHGAP21, Q5T5U3
GRASP, Q7Z6J2 = target: GRASP, Q7Z6J2
APBA2_2, Q99767 = target: T2, APBA2_2, Q99767
SNTB1, Q13884 = target: T3, SNTB1, Q13884
LNX1_2, Q8TBB1 = target: LNX1_2, Q8TBB1
MAGI2_4, Q86UL8 = target: MAGI2_4, Q86UL8
PDLIM1, O00151 = target: PDLIM1, O00151
GORASP2, Q9H8Y8 = target: GORASP2, Q9H8Y8
GRID2IP_2, A4D2P6 = target: GRID2IP_2, A4D2P6
IL16_1, Q14005 = target: IL16_1, Q14005
DLG4_2, P78352 = target: DLG4_2, P78352
PDZD2_2, O15018 = target: T4, PDZD2_2, O15018
DLG4_1, P78352 = target: DLG4_1, P78352
Inadl_10, Q8NI35 = target: Inadl_10, Q8NI35
GIPC2, Q8TF65 = target: GIPC2, Q8TF65
MAST2, Q6P0Q8 = target: MAST2, Q6P0Q8
Inadl_6, Q8NI35 = target: Inadl_6, Q8NI35
IL16_4, Q14005 = target: IL16_4, Q14005
SHANK1, Q9Y566 = target: T5, SHANK1, Q9Y566
LAP2, Q96RT1 = target: LAP2, Q96RT1
MAGI3_2, Q5TCQ9 = target: MAGI3_2, Q5TCQ9
RADIL, Q96JH8 = target: T6, RADIL, Q96JH8
DLG2_3, Q15700 = target: DLG2_3, Q15700
GRIP2_5, Q9C0E4 = target: GRIP2_5, Q9C0E4
HTRA1, Q92743 = target: HTRA1, Q92743
MAST1, Q9Y2H9 = target: MAST1, Q9Y2H9
MAGI2_5, Q86UL8 = target: MAGI2_5, Q86UL8
Inadl_1, Q8NI35 = target: Inadl_1, Q8NI35
Chain of Inadl_1, Q8NI35 (Q8NI35 113-229): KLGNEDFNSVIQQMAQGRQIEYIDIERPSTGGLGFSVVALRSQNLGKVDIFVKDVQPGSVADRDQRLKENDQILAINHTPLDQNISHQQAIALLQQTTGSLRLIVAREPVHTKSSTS

Chain of MAST1, Q9Y2H9 (Q9Y2H9 962-1065): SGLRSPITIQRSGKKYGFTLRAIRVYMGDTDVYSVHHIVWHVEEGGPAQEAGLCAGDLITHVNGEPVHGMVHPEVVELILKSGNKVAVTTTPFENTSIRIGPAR
Chain of DLG4_1, P78352 (P78352 62-152): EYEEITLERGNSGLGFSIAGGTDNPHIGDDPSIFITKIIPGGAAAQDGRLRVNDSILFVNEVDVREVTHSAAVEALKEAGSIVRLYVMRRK
Chain of DLG4_3, P78352 (P78352 306-403): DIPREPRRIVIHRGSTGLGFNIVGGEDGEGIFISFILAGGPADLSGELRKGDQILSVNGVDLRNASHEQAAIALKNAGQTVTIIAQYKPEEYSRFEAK
Chain of FRMPD4, Q14CM0 (Q14CM0 67-160): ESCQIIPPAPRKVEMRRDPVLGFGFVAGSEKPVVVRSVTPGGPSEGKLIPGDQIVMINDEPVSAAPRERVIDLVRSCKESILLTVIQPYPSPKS
Chain of MAST2, Q6P0Q8 (Q6P0Q8 1099-1202): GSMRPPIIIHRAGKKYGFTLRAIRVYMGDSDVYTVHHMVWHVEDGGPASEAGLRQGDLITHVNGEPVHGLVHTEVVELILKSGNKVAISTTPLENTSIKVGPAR
Chain of DLG1_2, Q12959 (Q12959 314-412): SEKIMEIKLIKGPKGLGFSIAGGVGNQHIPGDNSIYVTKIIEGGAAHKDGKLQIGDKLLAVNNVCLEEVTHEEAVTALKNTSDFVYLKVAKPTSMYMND
Chain of IL16_4, Q14005 (Q14005 1229-1329): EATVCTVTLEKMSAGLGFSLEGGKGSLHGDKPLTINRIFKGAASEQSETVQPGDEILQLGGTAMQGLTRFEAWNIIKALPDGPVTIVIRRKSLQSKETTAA
Chain of IL16_1, Q14005 (Q14005 210-306): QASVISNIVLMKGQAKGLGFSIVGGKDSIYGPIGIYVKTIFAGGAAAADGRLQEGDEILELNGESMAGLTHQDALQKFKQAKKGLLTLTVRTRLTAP
Chain of MAGI2_5, Q86UL8 (Q86UL8 915-1017): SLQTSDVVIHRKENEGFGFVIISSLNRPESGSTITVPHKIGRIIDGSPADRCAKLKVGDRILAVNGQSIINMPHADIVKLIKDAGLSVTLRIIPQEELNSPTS
Chain of GRID2IP_2, A4D2P6 (A4D2P6 272-370): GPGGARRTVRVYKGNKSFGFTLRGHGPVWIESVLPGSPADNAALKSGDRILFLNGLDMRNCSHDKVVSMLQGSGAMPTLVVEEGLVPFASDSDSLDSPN
Chain of LAP2, Q96RT1 (Q96RT1 other isoform, or with tags, fused parts or gaps): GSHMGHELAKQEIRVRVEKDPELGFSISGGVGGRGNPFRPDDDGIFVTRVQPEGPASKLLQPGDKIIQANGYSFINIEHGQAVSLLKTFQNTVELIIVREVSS
Chain of GRIP2_5, Q9C0E4 (Q9C0E4 544-642): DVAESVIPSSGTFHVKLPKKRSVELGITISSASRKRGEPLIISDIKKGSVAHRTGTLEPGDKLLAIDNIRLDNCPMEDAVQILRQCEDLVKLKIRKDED
Chain of PDLIM1, O00151 (O00151 1-87): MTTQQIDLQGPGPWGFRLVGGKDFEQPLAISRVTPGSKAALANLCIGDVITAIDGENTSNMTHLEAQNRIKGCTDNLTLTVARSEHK
Chain of GRASP, Q7Z6J2 (Q7Z6J2 96-193): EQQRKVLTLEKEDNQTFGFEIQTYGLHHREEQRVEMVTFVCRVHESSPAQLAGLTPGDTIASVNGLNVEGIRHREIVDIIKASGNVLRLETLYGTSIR
Chain of GIPC2, Q8TF65 (Q8TF65 112-203): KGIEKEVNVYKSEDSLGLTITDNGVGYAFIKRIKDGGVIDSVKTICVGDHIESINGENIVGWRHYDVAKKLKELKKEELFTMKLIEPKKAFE
Chain of MAGI2_4, Q86UL8 (Q86UL8 772-865): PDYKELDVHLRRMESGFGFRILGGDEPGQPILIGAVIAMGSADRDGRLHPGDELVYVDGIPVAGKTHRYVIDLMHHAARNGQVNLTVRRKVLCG
Chain of DLG4_2, P78352 (P78352 155-259): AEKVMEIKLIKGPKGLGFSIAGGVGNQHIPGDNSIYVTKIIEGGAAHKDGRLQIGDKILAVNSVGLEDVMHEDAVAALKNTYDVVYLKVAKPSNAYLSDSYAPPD
Chain of Inadl_10, Q8NI35 (Q8NI35 1673-1763): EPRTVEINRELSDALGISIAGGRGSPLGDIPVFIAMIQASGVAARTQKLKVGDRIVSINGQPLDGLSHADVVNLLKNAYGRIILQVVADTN
Chain of Inadl_6, Q8NI35 (Q8NI35 1058-1167): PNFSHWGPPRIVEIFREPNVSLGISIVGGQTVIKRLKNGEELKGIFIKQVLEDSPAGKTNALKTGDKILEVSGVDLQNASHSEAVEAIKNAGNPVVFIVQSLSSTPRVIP
Chain of HTRA2, O43464 (O43464 355-458): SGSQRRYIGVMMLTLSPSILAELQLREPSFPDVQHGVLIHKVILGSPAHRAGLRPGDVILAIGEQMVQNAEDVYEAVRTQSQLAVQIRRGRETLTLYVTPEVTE
Chain of MAGI3_2, Q5TCQ9 (Q5TCQ9 398-503): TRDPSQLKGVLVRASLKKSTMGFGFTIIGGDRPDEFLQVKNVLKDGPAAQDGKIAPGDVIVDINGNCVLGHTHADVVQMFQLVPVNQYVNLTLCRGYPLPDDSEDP
Chain of LNX1_3, Q8TBB1 (Q8TBB1 500-596): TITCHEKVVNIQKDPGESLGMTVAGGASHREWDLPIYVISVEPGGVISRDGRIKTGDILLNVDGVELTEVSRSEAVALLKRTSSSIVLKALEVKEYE
Chain of HTRA1, Q92743 (Q92743 360-477): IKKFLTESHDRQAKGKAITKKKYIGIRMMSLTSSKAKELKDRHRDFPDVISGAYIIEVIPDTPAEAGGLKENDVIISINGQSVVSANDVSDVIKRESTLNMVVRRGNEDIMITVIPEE
Chain of LNX1_2, Q8TBB1 (Q8TBB1 371-470): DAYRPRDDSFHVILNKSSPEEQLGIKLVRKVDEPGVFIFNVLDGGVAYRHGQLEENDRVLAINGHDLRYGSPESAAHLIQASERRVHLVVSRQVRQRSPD

Binder | pKd (LNX1_3, Q8TBB1) | pKd (HTRA2, O43464) | pKd (DLG1_2, Q12959) | pKd (FRMPD4, Q14CM0) | pKd (DLG4_3, P78352) | pKd (ARHGAP21, Q5T5U3) | pKd (GRASP, Q7Z6J2) | pKd (APBA2_2, Q99767) | pKd (SNTB1, Q13884) | pKd (LNX1_2, Q8TBB1) | pKd (MAGI2_4, Q86UL8) | pKd (PDLIM1, O00151) | pKd (GORASP2, Q9H8Y8) | pKd (GRID2IP_2, A4D2P6) | pKd (IL16_1, Q14005) | pKd (DLG4_2, P78352) | pKd (PDZD2_2, O15018) | pKd (DLG4_1, P78352) | pKd (Inadl_10, Q8NI35) | pKd (GIPC2, Q8TF65) | also measured
DFLSTFHIRI [CIB2, O75838] | 4.28 | 3.5 | below the threshold | below the threshold | 3.5 | 4.13 | 3.47 | below the threshold | below the threshold | below the threshold | below the threshold | below the threshold | 4.46 | below the threshold | below the threshold | below the threshold | 3.71 | below the threshold | below the threshold | below the threshold | pKd (MAST2, Q6P0Q8): 4.68; pKd (Inadl_6, Q8NI35): below the threshold; pKd (IL16_4, Q14005): below the threshold; pKd (SHANK1, Q9Y566): below the threshold; pKd (LAP2, Q96RT1): below the threshold; pKd (MAGI3_2, Q5TCQ9): 4.3; pKd (RADIL, Q96JH8): 4.19; pKd (DLG2_3, Q15700): below the threshold; pKd (GRIP2_5, Q9C0E4): below the threshold; pKd (HTRA1, Q92743): 4.15; pKd (MAST1, Q9Y2H9): below the threshold; pKd (MAGI2_5, Q86UL8): below the threshold; pKd (Inadl_1, Q8NI35): 3.91
TISFTQTSQF [SLC1A1, P43005] | below the threshold | below the threshold | 3.83 | below the threshold | below the threshold | below the threshold | 5.31 | below the threshold | below the threshold | below the threshold | 3.58 | below the threshold | below the threshold | below the threshold | below the threshold | below the threshold | below the threshold | below the threshold | below the threshold | below the threshold | pKd (MAST2, Q6P0Q8): 4.89; pKd (Inadl_6, Q8NI35): below the threshold; pKd (IL16_4, Q14005): below the threshold; pKd (SHANK1, Q9Y566): 4.61; pKd (LAP2, Q96RT1): below the threshold; pKd (MAGI3_2, Q5TCQ9): below the threshold; pKd (RADIL, Q96JH8): below the threshold; pKd (DLG2_3, Q15700): 3.71; pKd (GRIP2_5, Q9C0E4): below the threshold; pKd (HTRA1, Q92743): below the threshold; pKd (MAST1, Q9Y2H9): below the threshold; pKd (MAGI2_5, Q86UL8): 4.29; pKd (Inadl_1, Q8NI35): below the threshold
PSHPRLQTHV [KIRREL2, Q6UWL6] | below the threshold | below the threshold | 4.65 | below the threshold | 3.86 | below the threshold | 4.18 | below the threshold | 3.48 | below the threshold | 3.62 | below the threshold | 3.55 | 4.08 | below the threshold | 4.48 | 4.23 | 4.06 | below the threshold | below the threshold | pKd (MAST2, Q6P0Q8): 5.5; pKd (Inadl_6, Q8NI35): below the threshold; pKd (IL16_4, Q14005): below the threshold; pKd (SHANK1, Q9Y566): 3.84; pKd (LAP2, Q96RT1): below the threshold; pKd (MAGI3_2, Q5TCQ9): 5.1; pKd (RADIL, Q96JH8): 3.73; pKd (DLG2_3, Q15700): 4.26; pKd (GRIP2_5, Q9C0E4): below the threshold; pKd (HTRA1, Q92743): below the threshold; pKd (MAST1, Q9Y2H9): 4.5; pKd (MAGI2_5, Q86UL8): 3.58; pKd (Inadl_1, Q8NI35): below the threshold
